B1: murine TpoR ectodomain, monomeric (TpoR_(1-479)) [modified: N-linked glycans at N117, N178, N349; tryptophan mannosylation (W465, W468); N-linked glycans at N117, N178, N349; tryptophan mannosylation (W465, W468)] [mouse] / peptide version … (parent complex)
chain 1: QDVFLLALGTEPLNCFSQTFEDLTCFWDEEEAAPSGTYQLLYAYRGEKPRACPLYSQSVPTFGTRYVCQFPAQDEVRLFFPLHLWVKNVSLNQTLIQRVLFVDSVGLPAPPRVIKARGGSQPGELQIHWEAPAPEISDFLRHELRYGPTDSSNATAPSVIQLLSTETCCPTLWMPNPVPVLDQPPCVHPTASQPHGPAPFLTVKGGSCLVSGLQAGKSYWLQLRSQPDGVSLRGSWGPWSFPVTVDLPGDAVTIGLQCFTLDLKMVTCQWQQQDRTSSQGFFRHSRTRCCPTDRDPTWEKCEEEEPRPGSQPALVSRCHFKSRNDSVIHILVEVTTAQGAVHSYLGSPFWIHQAVLLPTPSLHWREVSSGRLELEWQHQSSWAAQETCYQLRYTGEGREDWKVLEPSLGARGGTLELRPRARYSLQLRARLNGPTYQGPWSAWSPPARVSTGSE
chain 2: IEGPTLRQWLAARAGGIEGPTLRQWLAARA
B2: monomeric version of the romiplostim peptide [modified: N-terminal biotin moiety; N-terminal biotin moiety] / murine TpoR ectodomain, monomeric (TpoR_(1-479)) [modified: N-linked glycans at N117, N178, N349; tryptophan mannosylation (W465, … (parent complex)
chain 1: IEGPTLRQWLAARA
chain 2: B1 chain 1

Variants of: B1
Test: SPR; peak response of the last (highest concentration) injection over immobilised romiplostim peptide; concentration not stated for this panel; read off a plot

response [RU] | Variant
~220 | chain 1 F80A

Variants of: B2
Test: SPR; peak response of the last injection (100 nM TpoR, top concentration of a two-fold dilution series) over immobilised peptide; read off a plot

response [RU] | Variant
~36 | chain 1 A12L

From article PMC10850085 (Nature Communications, 2024)
